Data on 1 substance can be found in article PMC9733933.

The target of this test is SARS-CoV-2 nsp7-11 polyprotein (SARS-CoV-2). Description: SEC-MALS. (In gel filtration, larger molecules generally elute earlier.)

Regarding “SARS-CoV-2 nsp7-11 polyprotein (domain or fragment)”, the stoichiometry N (in general, the number of molecules, sites or subunits per partner or assembly) came out at 2.
